# Assay results taken from patent publication US20080254508.
# T1: holo-ZmaD
# T1 chain: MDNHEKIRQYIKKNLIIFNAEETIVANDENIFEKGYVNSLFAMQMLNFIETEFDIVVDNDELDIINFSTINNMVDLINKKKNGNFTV
# Assays:
# holo-ZmaH [1] = test system: holo-ZmaH
# holo-ZmaD [2] = test system: holo-ZmaD
# holo-ZmaD [3] = biological target: T1, holo-ZmaD
# holo-ZmaH [4] = biological target: holo-ZmaH; remark: listed apart in the source
Molecule,formation of seryl-ZmaH (HPLC elution shift and MS mass of holo-ZmaH) (holo-ZmaH [1]),aminoacylation of holo-ZmaD (holo-ZmaD replaced holo-ZmaH) (holo-ZmaD [2]),formation of glyceryl-ZmaD (HPLC elution shift and MALDI-TOF MS mass shift of holo-ZmaD) (holo-ZmaD [3]),"rate of holo-ZmaD modification, with 3-PGPK (holo-ZmaD [3]) [nmol min-1 with 3-PGPK]","rate of holo-ZmaD modification, without 3-PGPK (holo-ZmaD [3]) [nmol min-1 without 3-PGPK]",formation of glyceryl-ACP (control reaction in which holo-ZmaH replaced holo-ZmaD) (holo-ZmaH [4])
ZmaJ,"Incubation of holo-ZmaH with ZmaJ, L-Ser, and ATP resulted in a change in the holo-ZmaH elution time from the HPLC, and the mass of the purified product was consistent with the formation of seryl-ZmaH",ZmaJ was not able to aminoacylate holo-ZmaD,–,–,–,–
ZmaN (protein) MSKEIKCVVWDLDCTIWDGVLLESGTVTLKPGIYEIICELDRRGILQSVASKNNYEDAIAKLREFGIEEYFLYPEIHWNSKSSSIEKIRKNLNIGIDTFAFIDDQPFELEEVQSVHNDILCIHVNEYKSLLDLPRLQPKRITEDSGRRRLMYLENLKRTKDEEEYEGPKEEFLASLGMNFVISEAREEDLQRAEELTVRTNQLNSTGITYDYDELNYYRNHPDYLLLVCELSDKYGSYGKIGLTLVKRTEEADCLKLLLMSCRVMSRGVGTILLTYLMERTKQAGKRFLAEFRQTDRNRMMFVTYRLAGFKETSNENGILILEHNLENINPYPHYINIQFPETPTDVDRGEVEICNKQL,–,–,The mass of holo-ZmaD had shifted to be consistent with the formation of glyceryl-ZmaD,1.44,0.08,holo-ZmaH was not a substrate for ZmaN-catalyzed formation of glyceryl-ACP
